Assay results as given in US20250277057A1 (OKLAHOMA MEDICAL RESEARCH FOUNDATION, published 2025).
Positions count from the first letter of the chain named. Blank lines part the entries; values can stand above or below the binder they belong to.

Tests used:
[1] = target: T1, human activated protein C (human, UniProt P04070 43-197; P04070 212-461); test: Octet BLI, antibody on Protein A sensor, huAPC 3.13-50 nM, 1:1 model, 25 C, pH 7.4
T1 construct: In the plasma assays aPC is generated in human plasma with Protac; also called aPC; haPC
Procedure: (§1) Assay method: Octet analysis was carried out at 25° C. using a Protein A Octet biosensor in 1× Kinetics buffer. During the kinetics assay, the baseline step assay was run in 1× Kinetics buffer for 120 seconds, and then run for 240 seconds after the antibody was loaded to the biosensor. Next, the baseline 2 step assay was run in 1× Kinetics buffer for 120 seconds. […] The 1× Kinetics buffer was used as a blank control to show the natural dissociation of the antibody in the buffer. 10 mM glycine at pH 1.5 was used for the regeneration step. Octet data analysis software was used to calculate binding kinetics, and a 1:1 binding model was used for curve fitting.
The affinities of the mutant antibodies were assayed at pH 7.4.

human protein C [2] = target: T2, human protein C (human, UniProt P04070 43-461); test: ELISA, plate coated with hPC 1 ug/mL, anti-hIgG-Fc-HRP
T2 construct: Zymogen form, coated on ELISA plates; also called hPC; PC
Procedure: (§2) The binding abilities of the anti-aPC monoclonal antibodies to haPC/hPC were assayed by Elisa. […] 1. ELISA plates were coated with haPC/hPC (1 ug/mL in PBS), 100 μL/well, at 4° C. overnight. […] 2. The plates were washed 3 times with PBST (0.1% Tween 20), 200 μL/well. […] 3. The plates were blocked with 2% BSA (PBS solution), 200 μL/well, at room temperature for 1 hour. […] 4. The plates were washed 3 times with PBST (0.1% Tween 20), 200 μL/well. […] 5. The plates were incubated with anti-aPC monoclonal antibody as primary antibody (diluted from 10 μg/mL in 2% BSA), 100 μL/well, at room temperature for 1 hour. […] 6. The plates were washed 3 times with PBST (0.1% Tween 20), 200 μL/well. [0200] 7. The plates were incubated with anti-hIgG-Fc antibody-HRP (diluted 5000-fold in 2% BSA buffer) at room temperature for 1 hour. [0201] 8. The plates were washed 6 times with PBST (0.1% Tween 20), 200 μL/well. [0202] 9. The plates were incubated with a TMB substrate (prepared from solutions A and B at 1:1 (v/v)), 100 μL/well, away from light for 10 minutes. […] 10. The reaction was quenched with HCl (1 M), 100 μL/well, and OD450 was read.

[3] = target: T1, human activated protein C; test: Octet BLI
Procedure: as §1

[4] = target: T1, human activated protein C; test: ELISA, plate coated with haPC 1 ug/mL, anti-hIgG-Fc-HRP
Procedure: as §2

[5] = target: T1, human activated protein C; test: cell-based or functional assay
human protein C [6] = target: T2, human protein C; test: ELISA on plate-coated HPC, OD450
Procedure: as §2

[7] = target: T1, human activated protein C; test: ELISA on plate-coated APC (1 ug/ml), OD 450; EC50 from the table drawn beside the curves; no unit in the table, axis Ab Conc.(nM)
human protein C [8] = target: T2, human protein C; test: ELISA on plate-coated HuPC (1 ug/ml), OD450

B1: HAPC-14-6 (antibody, V domains shown)
VH: EVQLVESGGGLVQPGGSLRLSCAASGFTFSFYYLNWVRQAPGKGLEWVGDIRLKKNNYEKHYAESVKGRFTISRDDSKSITYLQMNSLRAEDTAVYYCAREGDYFDYWGQGTTVTVSS
VL: DIQLTQSPSSLSASVGDRVTITCRASESVDSFGATFMHWYQQKPGKAPKLLIYLASRLGSGVPSRFSGSGSGTDFTLTISSLQPEDFATYYCQQNNEDPYTFGQGTKLEIK
notes: Whole IgG, backbone hIgG1; also called HPAC 14-6; No. 6
Kd [1]: 3.64 nM
koff [1]: 0.00108 s⁻¹
kon [1]: 297000 M⁻¹ s⁻¹
Span (human protein C [2]): ~0.0133
fold increase of affinity against the unmutated No. 14 antibody HAPC-14 [3]: ~100 fold
EC50 [4]: 0.0821 nM
Span [4]: 1.85
Mean clotting time (s), FIX-deficient plasma, APC-antibody concentration 0.5 ug/ml [5]: 181 s
Mean clotting time (s), FIX-deficient plasma, APC-antibody concentration 1 ug/ml [5]: 198 s
Mean clotting time (s), FIX-deficient plasma, APC-antibody concentration 5 ug/ml [5]: 180 s
Mean clotting time (s), FVIII-deficient plasma, APC-antibody concentration 0.5 ug/ml [5]: 182 s
Mean clotting time (s), FVIII-deficient plasma, APC-antibody concentration 1 ug/ml [5]: 187 s
Mean clotting time (s), FVIII-deficient plasma, APC-antibody concentration 5 ug/ml [5]: 162 s
binding result (human protein C [6]): no binding (tested: 10^2 nM)

B2: Humanized antibody 13 (HAPC-13) (antibody, V domains shown)
VH: B1 VH with F31N, K55S
VL: B1 VL with L4M, R57N, G59E
notes: also called Humab001-13; NO; 13 antibody
EC50 [7]: 0.199 nM
binding result (human protein C [8]): no binding (tested: 100 nM)
Mean clotting time (s), FIX-deficient plasma, APC-antibody concentration 0.5 ug/ml [5]: 502 s
Mean clotting time (s), FIX-deficient plasma, APC-antibody concentration 1 ug/ml [5]: 402 s
Mean clotting time (s), FIX-deficient plasma, APC-antibody concentration 5 ug/ml [5]: 326 s
Mean clotting time (s), FVIII-deficient plasma, APC-antibody concentration 0.5 ug/ml [5]: 629 s
Mean clotting time (s), FVIII-deficient plasma, APC-antibody concentration 1 ug/ml [5]: 546 s
Mean clotting time (s), FVIII-deficient plasma, APC-antibody concentration 5 ug/ml [5]: 301 s

More lines, now with the values ahead:

Kd [1]: 2.67 nM
koff [1]: 0.000854 s⁻¹
kon [1]: 320000 M⁻¹ s⁻¹
Span (human protein C [2]): ~0.267
fold increase of affinity against the unmutated No. 14 antibody HAPC-14 [3]: ~100 fold
EC50 [4]: 0.0618 nM
Span [4]: 1.61
Mean clotting time (s), FIX-deficient plasma, APC-antibody concentration 0.5 ug/ml [5]: 208 s
Mean clotting time (s), FIX-deficient plasma, APC-antibody concentration 1 ug/ml [5]: 200 s
Mean clotting time (s), FIX-deficient plasma, APC-antibody concentration 5 ug/ml [5]: 185 s
Mean clotting time (s), FVIII-deficient plasma, APC-antibody concentration 0.5 ug/ml [5]: 205 s
Mean clotting time (s), FVIII-deficient plasma, APC-antibody concentration 1 ug/ml [5]: 188 s
Mean clotting time (s), FVIII-deficient plasma, APC-antibody concentration 5 ug/ml [5]: 176 s
binding result (human protein C [6]): no binding (tested: 10^2 nM)
B3: HAPC-14-3 (antibody, V domains shown)
VH: B1 VH
VL: B1 VL with Q93V
notes: Whole IgG, backbone hIgG1; also called HPAC 14-3; No. 3

EC50 [7]: 0.172 nM
binding result (human protein C [8]): no binding (tested: 100 nM)
B4: Humanized antibody 16 (HAPC-16) (antibody, V domains shown)
VH: B1 VH with F31N, K55S
VL: B1 VL with D1N, Q3V, A47P, R57N, G59E, G72R
notes: also called Humab001-16; NO; 16 antibody
